T1: CCL22 labeled with Alexa Fluor 647, O00626
T1 chain: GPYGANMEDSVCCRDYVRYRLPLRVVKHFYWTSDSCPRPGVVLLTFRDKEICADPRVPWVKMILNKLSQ


Assays:
[1] = target: T1, CCL22 labeled with Alexa Fluor 647, …; assay: flow cytometry on cells; details: chain shown with the change;; parent: est. 47; read off a plot
[2] = target: CCL2 labeled with Alexa Fluor 647, P13500; assay: flow cytometry on cells; details: read off a plot
[3] = chain shown with the change;, parent: est. 195

CCL2 labeled with Alexa Fluor 647, P13500, sequence (P13500 24-99): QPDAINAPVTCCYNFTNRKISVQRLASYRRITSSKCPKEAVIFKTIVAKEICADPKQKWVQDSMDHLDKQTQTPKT

Binder	response [1] [MFI]	response [2, 3] [MFI]	further results
HA-ACKR2 (epitope-tagged human ACKR2, wild type), O00590 YYYDY to FFYDF (first, second and fourth tyrosines of the motif to F) (protein) MAATASPQPLATEDADSENSSFFFYDFLDEVAFMLCRKDAVVSFGKVFLPVFYSLIFVLGLSGNLLLLMVLLRYVPRRRMVEIYLLNLAISNLLFLVTLPFWGISVAWHWVFGSFLCKMVSTLYTINFYSGIFFISCMSLDKYLEIVHAQPYHRLRTRAKSLLLATIVWAVSLAVSIPDMVFVQTHENPKGVWNCHADFGGHGTIWKLFLRFQQNLLGFLLPLLAMIFFYSRIGCVLVRLRPAGQGRALKIAAALVVAFFVLWFPYNLTLFLHTLLDLQVFGNCEVSQHLDYALQVTESIAFLHCCFSPILYAFSSHRFRQYLKAFLAAVLGWHLAPGTAQASLSSCSESSILTAQEEMTGMNDLGERQSENYPNKEDVGNKSA	18	–	–
HA-ACKR2 (epitope-tagged human ACKR2, wild type), O00590 YYYDY to YYFDY (third tyrosine of the motif to F) (protein) MAATASPQPLATEDADSENSSFYYFDYLDEVAFMLCRKDAVVSFGKVFLPVFYSLIFVLGLSGNLLLLMVLLRYVPRRRMVEIYLLNLAISNLLFLVTLPFWGISVAWHWVFGSFLCKMVSTLYTINFYSGIFFISCMSLDKYLEIVHAQPYHRLRTRAKSLLLATIVWAVSLAVSIPDMVFVQTHENPKGVWNCHADFGGHGTIWKLFLRFQQNLLGFLLPLLAMIFFYSRIGCVLVRLRPAGQGRALKIAAALVVAFFVLWFPYNLTLFLHTLLDLQVFGNCEVSQHLDYALQVTESIAFLHCCFSPILYAFSSHRFRQYLKAFLAAVLGWHLAPGTAQASLSSCSESSILTAQEEMTGMNDLGERQSENYPNKEDVGNKSA	–	180	–
HA-ACKR2 (epitope-tagged human ACKR2, wild type), O00590 YYYDY to FYYDY (first tyrosine of the motif to F) (protein) MAATASPQPLATEDADSENSSFFYYDYLDEVAFMLCRKDAVVSFGKVFLPVFYSLIFVLGLSGNLLLLMVLLRYVPRRRMVEIYLLNLAISNLLFLVTLPFWGISVAWHWVFGSFLCKMVSTLYTINFYSGIFFISCMSLDKYLEIVHAQPYHRLRTRAKSLLLATIVWAVSLAVSIPDMVFVQTHENPKGVWNCHADFGGHGTIWKLFLRFQQNLLGFLLPLLAMIFFYSRIGCVLVRLRPAGQGRALKIAAALVVAFFVLWFPYNLTLFLHTLLDLQVFGNCEVSQHLDYALQVTESIAFLHCCFSPILYAFSSHRFRQYLKAFLAAVLGWHLAPGTAQASLSSCSESSILTAQEEMTGMNDLGERQSENYPNKEDVGNKSA	–	180	–
HA-ACKR2 (epitope-tagged human ACKR2, wild type), O00590 YYYDY to FYFDF (first, third and fourth tyrosines of the motif to F) (protein) MAATASPQPLATEDADSENSSFFYFDFLDEVAFMLCRKDAVVSFGKVFLPVFYSLIFVLGLSGNLLLLMVLLRYVPRRRMVEIYLLNLAISNLLFLVTLPFWGISVAWHWVFGSFLCKMVSTLYTINFYSGIFFISCMSLDKYLEIVHAQPYHRLRTRAKSLLLATIVWAVSLAVSIPDMVFVQTHENPKGVWNCHADFGGHGTIWKLFLRFQQNLLGFLLPLLAMIFFYSRIGCVLVRLRPAGQGRALKIAAALVVAFFVLWFPYNLTLFLHTLLDLQVFGNCEVSQHLDYALQVTESIAFLHCCFSPILYAFSSHRFRQYLKAFLAAVLGWHLAPGTAQASLSSCSESSILTAQEEMTGMNDLGERQSENYPNKEDVGNKSA	19	–	–
HA-ACKR2 (epitope-tagged human ACKR2, wild type), O00590 YYYDY to YFFDF (second, third and fourth tyrosines of the motif to F) (protein) MAATASPQPLATEDADSENSSFYFFDFLDEVAFMLCRKDAVVSFGKVFLPVFYSLIFVLGLSGNLLLLMVLLRYVPRRRMVEIYLLNLAISNLLFLVTLPFWGISVAWHWVFGSFLCKMVSTLYTINFYSGIFFISCMSLDKYLEIVHAQPYHRLRTRAKSLLLATIVWAVSLAVSIPDMVFVQTHENPKGVWNCHADFGGHGTIWKLFLRFQQNLLGFLLPLLAMIFFYSRIGCVLVRLRPAGQGRALKIAAALVVAFFVLWFPYNLTLFLHTLLDLQVFGNCEVSQHLDYALQVTESIAFLHCCFSPILYAFSSHRFRQYLKAFLAAVLGWHLAPGTAQASLSSCSESSILTAQEEMTGMNDLGERQSENYPNKEDVGNKSA	22	–	–
HA-ACKR2 (epitope-tagged human ACKR2, wild type), O00590 YYYDY to FFFDF (all four tyrosines of the motif to F) (protein) MAATASPQPLATEDADSENSSFFFFDFLDEVAFMLCRKDAVVSFGKVFLPVFYSLIFVLGLSGNLLLLMVLLRYVPRRRMVEIYLLNLAISNLLFLVTLPFWGISVAWHWVFGSFLCKMVSTLYTINFYSGIFFISCMSLDKYLEIVHAQPYHRLRTRAKSLLLATIVWAVSLAVSIPDMVFVQTHENPKGVWNCHADFGGHGTIWKLFLRFQQNLLGFLLPLLAMIFFYSRIGCVLVRLRPAGQGRALKIAAALVVAFFVLWFPYNLTLFLHTLLDLQVFGNCEVSQHLDYALQVTESIAFLHCCFSPILYAFSSHRFRQYLKAFLAAVLGWHLAPGTAQASLSSCSESSILTAQEEMTGMNDLGERQSENYPNKEDVGNKSA	7.5	26	response ([2]; chain shown with the change, 10 µg/ml Alexa-CCL2, parent: est. 28): 3 MFI; response ([2]; chain shown with the change, 20 µg/ml Alexa-CCL2, parent: est. 37): 3 MFI; response ([2]; chain shown with the change, 30 µg/ml Alexa-CCL2, parent: est. 54): 6 MFI
HA-ACKR2 (epitope-tagged human ACKR2, wild type), O00590 YYYDY to YFYDY (second tyrosine of the motif to F) (protein) MAATASPQPLATEDADSENSSFYFYDYLDEVAFMLCRKDAVVSFGKVFLPVFYSLIFVLGLSGNLLLLMVLLRYVPRRRMVEIYLLNLAISNLLFLVTLPFWGISVAWHWVFGSFLCKMVSTLYTINFYSGIFFISCMSLDKYLEIVHAQPYHRLRTRAKSLLLATIVWAVSLAVSIPDMVFVQTHENPKGVWNCHADFGGHGTIWKLFLRFQQNLLGFLLPLLAMIFFYSRIGCVLVRLRPAGQGRALKIAAALVVAFFVLWFPYNLTLFLHTLLDLQVFGNCEVSQHLDYALQVTESIAFLHCCFSPILYAFSSHRFRQYLKAFLAAVLGWHLAPGTAQASLSSCSESSILTAQEEMTGMNDLGERQSENYPNKEDVGNKSA	71	–	–
HA-ACKR2 (epitope-tagged human ACKR2, wild type), O00590 YYYDY to YYYDF (fourth tyrosine of the motif to F) (protein) MAATASPQPLATEDADSENSSFYYYDFLDEVAFMLCRKDAVVSFGKVFLPVFYSLIFVLGLSGNLLLLMVLLRYVPRRRMVEIYLLNLAISNLLFLVTLPFWGISVAWHWVFGSFLCKMVSTLYTINFYSGIFFISCMSLDKYLEIVHAQPYHRLRTRAKSLLLATIVWAVSLAVSIPDMVFVQTHENPKGVWNCHADFGGHGTIWKLFLRFQQNLLGFLLPLLAMIFFYSRIGCVLVRLRPAGQGRALKIAAALVVAFFVLWFPYNLTLFLHTLLDLQVFGNCEVSQHLDYALQVTESIAFLHCCFSPILYAFSSHRFRQYLKAFLAAVLGWHLAPGTAQASLSSCSESSILTAQEEMTGMNDLGERQSENYPNKEDVGNKSA	–	180	–
HA-ACKR2 (epitope-tagged human ACKR2, wild type), O00590 YYYDY to FFFDY (first, second and third tyrosines of the motif to F) (protein) MAATASPQPLATEDADSENSSFFFFDYLDEVAFMLCRKDAVVSFGKVFLPVFYSLIFVLGLSGNLLLLMVLLRYVPRRRMVEIYLLNLAISNLLFLVTLPFWGISVAWHWVFGSFLCKMVSTLYTINFYSGIFFISCMSLDKYLEIVHAQPYHRLRTRAKSLLLATIVWAVSLAVSIPDMVFVQTHENPKGVWNCHADFGGHGTIWKLFLRFQQNLLGFLLPLLAMIFFYSRIGCVLVRLRPAGQGRALKIAAALVVAFFVLWFPYNLTLFLHTLLDLQVFGNCEVSQHLDYALQVTESIAFLHCCFSPILYAFSSHRFRQYLKAFLAAVLGWHLAPGTAQASLSSCSESSILTAQEEMTGMNDLGERQSENYPNKEDVGNKSA	24	–	–

Source: article PMC4007430
